Key:
[1] = target: T1, hu-IL-36α (human IL-36α, N-terminally truncated active form K6-F158) (human, UniProt Q9UHA7 6-158); assay: cell-based or functional assay
T1 sequence: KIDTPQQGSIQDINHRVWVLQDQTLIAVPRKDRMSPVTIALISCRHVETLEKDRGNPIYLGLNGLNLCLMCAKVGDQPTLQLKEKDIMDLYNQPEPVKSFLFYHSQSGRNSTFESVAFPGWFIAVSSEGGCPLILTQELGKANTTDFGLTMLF

[2] = target: T2, hu-IL-36β (human IL-36β, N-terminally truncated active form R5-E157) (human); assay: cell-based or functional assay
T2 chain: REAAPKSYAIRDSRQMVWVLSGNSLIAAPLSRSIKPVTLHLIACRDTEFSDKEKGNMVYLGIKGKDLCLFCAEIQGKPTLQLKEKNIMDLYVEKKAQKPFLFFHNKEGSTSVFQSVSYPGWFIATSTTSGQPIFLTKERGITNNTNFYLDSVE

[3] = target: T3, hu-IL-36γ (human IL-36γ, N-terminally truncated active form S18-D169) (human, UniProt Q9NZH8 18-169); assay: cell-based or functional assay
T3 sequence: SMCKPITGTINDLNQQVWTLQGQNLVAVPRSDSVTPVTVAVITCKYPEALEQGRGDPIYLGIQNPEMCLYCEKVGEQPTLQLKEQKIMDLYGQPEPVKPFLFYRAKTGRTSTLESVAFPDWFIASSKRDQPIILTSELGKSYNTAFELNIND

[4] = target: T4, cy-IL-36β-Avi (in-vivo biotinylated) (cynomolgus monkey, site-specifically biotinylated in vivo on the C-terminal AviTag (BirA)); assay: SPR (Biacore 8K), in-vivo biotinylated IL-36-Avi captured on CAP chip, bispecific IgG injected, 37°C
T4 construct: also called cy-IL-36J-Avi [sic]; biotinylated cyno IL-36β-Avi
T4 chain: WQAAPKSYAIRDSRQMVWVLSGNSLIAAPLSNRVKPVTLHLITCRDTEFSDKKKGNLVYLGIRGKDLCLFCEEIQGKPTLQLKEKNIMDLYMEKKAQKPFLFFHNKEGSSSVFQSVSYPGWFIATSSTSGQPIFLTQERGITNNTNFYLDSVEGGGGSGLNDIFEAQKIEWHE
Procedure: (§1) Surface plasmon resonance (SPR) analysis was used to determine the binding affinity for human and cynomolgus monkey IL-36 (“hu-IL-36” and “cy-IL-36,” respectively) using a BIACORE™ 8K instrument as described in Example 2. […] Briefly, a 1:4 dilution of Biotin CAPture Reagent (GE Healthcare) into HBS-EP buffer (0.01 M HEPES pH 7.4, 0.15 M NaCl, 3 mM EDTA, 0.005% Surfactant P20) was applied to a CAP sensor chip at 2 μL/min flow rate. For kinetics measurements, 1 nM biotinylated human and cyno IL-36α-Avi, IL-36γ-Avi; 0.8 nM biotinylated human and cyno IL-36β-Avi were captured at 10 μL/min to achieve 15-25 response units in the second flow cell (FC2). FC1 was kept as a reference. […] The sensorgram was recorded and subject to reference and buffer subtraction before data analysis with the BIACORE® 8K Evaluation Software (version 1.1.1.7442). […] Association rates (kₒₙ) and dissociation rates (koff) were calculated using a simple one-to-one Langmuir binding model. The equilibrium dissociation constant (KD) was calculated as the ratio of koff/kₒₙ.

[5] = target: T5, hu-IL-36γ-Avi (in-vivo biotinylated) (human, site-specifically biotinylated in vivo on the C-terminal AviTag (BirA)); assay: as above
T5 construct: also called biotinylated human IL-36γ-Avi
T5 chain: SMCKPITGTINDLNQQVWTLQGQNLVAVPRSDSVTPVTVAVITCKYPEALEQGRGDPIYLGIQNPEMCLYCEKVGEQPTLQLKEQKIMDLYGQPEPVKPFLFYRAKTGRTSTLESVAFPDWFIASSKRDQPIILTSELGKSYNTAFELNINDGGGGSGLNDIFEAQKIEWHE
Procedure: as §1

[6] = target: T6, hu-IL-36α-Avi (in-vivo biotinylated) (human, site-specifically biotinylated in vivo on the C-terminal AviTag (BirA)); assay: as above
T6 construct: also called biotinylated human IL-36α-Avi
T6 chain: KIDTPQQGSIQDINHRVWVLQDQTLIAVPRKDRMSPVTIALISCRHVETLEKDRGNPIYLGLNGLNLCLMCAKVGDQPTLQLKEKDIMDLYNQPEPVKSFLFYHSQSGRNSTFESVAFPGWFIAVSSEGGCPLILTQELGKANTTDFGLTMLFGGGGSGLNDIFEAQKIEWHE
Procedure: as §1

[7] = target: T7, hu-IL-36β-Avi (in-vivo biotinylated) (human, site-specifically biotinylated in vivo on the C-terminal AviTag (BirA)); assay: as above
T7 construct: also called biotinylated human IL-36β-Avi
T7 chain: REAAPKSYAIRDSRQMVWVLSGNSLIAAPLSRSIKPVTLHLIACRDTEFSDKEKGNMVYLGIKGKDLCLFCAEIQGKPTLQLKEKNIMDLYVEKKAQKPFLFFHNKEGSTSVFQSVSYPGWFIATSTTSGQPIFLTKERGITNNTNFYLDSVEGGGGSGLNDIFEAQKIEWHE
Procedure: as §1

% inhibition of IL-8 production in HEKa cells at 8 nM antibody [1]: 100%
% inhibition of IL-8 production in HaCat cells at 8 nM antibody [1]: 100%
IC50, IL-36-mediated IL-8 production in HaCat cells [1]: ~0.38 nM
IC50, IL-36-mediated IL-8 production in primary human adult keratinocytes (HEKa) [1]: ~0.56 nM
% inhibition of IL-8 production in HEKa cells at 8 nM antibody [2]: 100%
% inhibition of IL-8 production in HaCat cells at 8 nM antibody [2]: 100%
IC50, IL-36-mediated IL-8 production in HaCat cells [2]: ~0.13 nM
IC50, IL-36-mediated IL-8 production in primary human adult keratinocytes (HEKa) [2]: ~0.11 nM
% inhibition of IL-8 production in HEKa cells at 8 nM antibody [3]: 100%
% inhibition of IL-8 production in HaCat cells at 8 nM antibody [3]: 100%
IC50, IL-36-mediated IL-8 production in HaCat cells [3]: ~1.1 nM
IC50, IL-36-mediated IL-8 production in primary human adult keratinocytes (HEKa) [3]: ~2.7 nM
Kd [4]: 2.51 nM
koff [4]: 0.000218 s⁻¹
kon [4]: 86900 M⁻¹ s⁻¹
Kd [5]: 1.63 nM
koff [5]: 0.000341 s⁻¹
kon [5]: 210000 M⁻¹ s⁻¹
Kd [6]: 1.95 nM
koff [6]: 0.000434 s⁻¹
kon [6]: 223000 M⁻¹ s⁻¹
Kd [7]: 1.84 nM
koff [7]: 0.000168 s⁻¹
kon [7]: 91400 M⁻¹ s⁻¹
B1: mAb2.10/mAb6_2.7 multispecific common light chain antibody (IgG, knobs-into-holes, N297G) (bispecific antibody)
heavy 1: not shown
heavy 2: not shown
light: ESVLTQPPSVSGAPGQRVTISCTGSSSNIGAHYDVHWYQQLPGTAPKLLIYGNDNRPSGVPDRFSGSKSGTSASLAITGLQAEDEADYYCQSYDYSLSGYVFGGGTKLTVLGQPKAAPSVTLFPPSSEELQANKATLVCLISDFYPGAVTVAWKADSSPVKAGVETTTPSKQSNNKYAASSYLSLTPEQWKSHKSYSCQVTHEGSTVEKTVAPTECS
notes: tags removed; also called mAb2.10/mAb6_2.7 IgG; anti-IL-36 multispecific antibody

Source: patent publication US20230235040A1 (ALMIRALL S A, published 2023)
